Data from paper PMC9828297 (Acta Biochimica et Biophysica Sinica, 2022).

Biological target: the molecule itself
Assay: SEC

B1: polyketide cyclase from Mycobacterium tuberculosis (MtPC) (natural protein)
chain: MGSTPPRTPQEVFAHHGQALAAGDLDEIVADYADDSFVITPAGIARGKEGIRQLFVKLLDDIPNALWDLKTQIFEGDILFLEWTANSAVSRVDDGVDTFVFRDGTIWAHTVRYTPHPKT
stoichiometry N: 2
